Laboratory results from PMC8280513, “Marmoset glutathione transferases with ketosteroid isomerase activity” (Biochemistry and Biophysics Reports, 2021).

T1: CjaGST A1-1 (Callithrix jacchus, UniProt A0A7G0XAM3)
T1 construct: gene GSTA1; 222 amino acid residues, N-terminal hexahistidine tag
T1 sequence (A0A7G0XAM3 1-222): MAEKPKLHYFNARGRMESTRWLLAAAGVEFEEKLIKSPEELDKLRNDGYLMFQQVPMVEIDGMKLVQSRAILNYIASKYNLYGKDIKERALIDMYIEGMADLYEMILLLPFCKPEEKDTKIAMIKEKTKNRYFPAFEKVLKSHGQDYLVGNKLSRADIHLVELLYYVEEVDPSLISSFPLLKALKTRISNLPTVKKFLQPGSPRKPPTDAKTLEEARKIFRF


What was measured:
CjaGST A1-1 = target: T1, CjaGST A1-1; experiment: specific activity, spectrophotometric assay; format: biochemical
purified protein = substrate: [H][C@@]12CC=C3CC(=O)CC[C@]3(C)[C@@]1([H])CC[C@]1(C)C(=O)CC[C@@]21[H]; experiment: purified protein; conditions: glutathione H-site; Phe111 suggested to hinder steroid binding

| Molecule | specific activity (CjaGST A1-1) | Km (purified protein) | kcat (purified protein) | kcat/Km (purified protein) |
| --- | --- | --- | --- | --- |
| O=[N+]([O-])c1ccc(Cl)c([N+](=O)[O-])c1 [CDNB, 1-chloro-2,4-dinitrobenzene] | 26.1 ± 0.59 µmol/min/mg | – | – | – |
| S=C=NCCc1ccccc1 [PEITC, phenethyl isothiocyanate] | 8.80 ± 1.95 µmol/min/mg | – | – | – |
| CjaGST A1-1 (Callithrix jacchus) (protein) MAEKPKLHYFNARGRMESTRWLLAAAGVEFEEKLIKSPEELDKLRNDGYLMFQQVPMVEIDGMKLVQSRAILNYIASKYNLYGKDIKERALIDMYIEGMADLYEMILLLPFCKPEEKDTKIAMIKEKTKNRYFPAFEKVLKSHGQDYLVGNKLSRADIHLVELLYYVEEVDPSLISSFPLLKALKTRISNLPTVKKFLQPGSPRKPPTDAKTLEEARKIFRF | – | 303 ± 34 µM | 6.89 ± 0.79 s⁻¹ | 22700 M⁻¹ s⁻¹ |
